This note sets out measurements from article PMC12717012, “Hierarchical interactions between nucleolar and heterochromatin condensates are mediated by a dual-affinity protein” (Nature Cell Biology, 2025).

This experiment has as its target T1, His-tagged recombinant Pit, wild type (Pit^WT) (Drosophila melanogaster, UniProt Q9VD51 1-680).
T1 construct: also called His-tagged Pit; pBH4-Pit; source: E. coli BL21, purified (Ni-NTA, size-exclusion chromatography on Superdex 200); not shown: 6×His, N-terminal, kept
As to the kind of experiment: pull-down; His-tagged Pit (5 µM) as bait with purified HP1a as prey (5 µM; titrated from 50 to 5 µM); 20 mM sodium phosphate, 50 mM NaCl, 10 mM imidazole, 4 °C; captured on Ni-NTA magnetic beads; western blot; background control beads + HP1a only. The following applies: both partners purified.

T1 sequence (Q9VD51 whole entry): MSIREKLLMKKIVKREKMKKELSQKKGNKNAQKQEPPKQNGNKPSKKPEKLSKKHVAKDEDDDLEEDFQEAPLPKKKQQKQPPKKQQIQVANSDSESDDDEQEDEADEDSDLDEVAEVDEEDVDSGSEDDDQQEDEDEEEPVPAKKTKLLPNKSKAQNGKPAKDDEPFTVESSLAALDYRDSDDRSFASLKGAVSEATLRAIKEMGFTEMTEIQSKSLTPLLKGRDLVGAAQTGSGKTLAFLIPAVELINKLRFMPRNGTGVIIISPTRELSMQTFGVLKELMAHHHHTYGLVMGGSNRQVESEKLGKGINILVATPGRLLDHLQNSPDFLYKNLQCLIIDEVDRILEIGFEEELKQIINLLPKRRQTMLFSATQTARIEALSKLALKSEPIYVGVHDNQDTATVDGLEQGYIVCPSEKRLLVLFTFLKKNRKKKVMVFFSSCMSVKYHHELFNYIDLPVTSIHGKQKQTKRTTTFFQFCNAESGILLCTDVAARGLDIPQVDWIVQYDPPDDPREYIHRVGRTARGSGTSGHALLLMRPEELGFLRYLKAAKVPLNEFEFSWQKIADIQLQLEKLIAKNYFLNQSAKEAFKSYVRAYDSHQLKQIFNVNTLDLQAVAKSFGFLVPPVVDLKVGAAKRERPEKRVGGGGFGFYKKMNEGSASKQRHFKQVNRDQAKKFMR

B1: purified HP1a, wild type (HP1a^WT) (natural protein, Drosophila melanogaster, UniProt P05205 1-206, looked up)
chain: MGKKIDNPESSAKVSDAEEEEEEYAVEKIIDRRVRKGKVEYYLKWKGYPETENTWEPENNLDCQDLIQQYEASRKDEEKSAASKKDRPSSSAKAKETQGRASSSTSTASKRKSEEPTAPSGNKSKRTTDAEQDTIPVSGSTGFDRGLEAEKILGASDNNGRLTFLIQFKGVDQAEMVPSSVANEKIPRMVIHFYEERLSWYSDNED
notes: HP1a, Drosophila melanogaster; It speaks of HP1a dimers, but no dimerisation experiment is done here
Consider B1, for which the binding result is “binds”.
